# Measurements: paper PMC9973331, “DNA Methylation and RNA-DNA Hybrids Regulate the Single-Molecule Localization of a DNA Methyltransferase on the Bacterial Nucleoid”
# T1: DnmA (WT) (Bacillus subtilis, UniProt O31504 1-879)
# T1 sequence: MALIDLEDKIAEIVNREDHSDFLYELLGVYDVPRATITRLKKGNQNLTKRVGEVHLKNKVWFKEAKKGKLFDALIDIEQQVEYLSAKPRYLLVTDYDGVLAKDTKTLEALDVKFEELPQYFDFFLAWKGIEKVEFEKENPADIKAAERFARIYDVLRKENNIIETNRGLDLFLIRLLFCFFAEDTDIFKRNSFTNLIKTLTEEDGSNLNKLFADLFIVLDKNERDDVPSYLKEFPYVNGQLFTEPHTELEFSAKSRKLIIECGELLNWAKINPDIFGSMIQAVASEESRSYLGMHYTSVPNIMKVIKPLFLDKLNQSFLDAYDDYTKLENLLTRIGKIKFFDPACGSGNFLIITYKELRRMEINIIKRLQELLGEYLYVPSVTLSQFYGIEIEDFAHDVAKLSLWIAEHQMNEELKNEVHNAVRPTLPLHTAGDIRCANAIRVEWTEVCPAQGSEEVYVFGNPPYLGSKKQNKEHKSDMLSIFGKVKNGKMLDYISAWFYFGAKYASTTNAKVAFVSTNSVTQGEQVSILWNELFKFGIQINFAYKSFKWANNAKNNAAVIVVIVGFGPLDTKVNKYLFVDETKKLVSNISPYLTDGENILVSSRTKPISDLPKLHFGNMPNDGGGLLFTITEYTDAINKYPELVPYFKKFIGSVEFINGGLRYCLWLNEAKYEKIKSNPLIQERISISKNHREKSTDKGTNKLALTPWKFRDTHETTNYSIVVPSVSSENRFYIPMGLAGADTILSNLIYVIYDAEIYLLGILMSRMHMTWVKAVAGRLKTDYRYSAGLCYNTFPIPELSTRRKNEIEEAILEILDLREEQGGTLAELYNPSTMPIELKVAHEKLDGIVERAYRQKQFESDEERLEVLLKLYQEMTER
# B1: unmethylated dsDNA (oTMN67/oTMN68) (dsDNA)
# DNA 1: CAAAACAGGATATGAAATAGTATTGGACGAGAGCTTTTTGGTGGCTTATACTATAG
# DNA 2: CTATAGTATAAGCCACCAAAAAGCTCTCGTCCAATACTATTTCATATCCTGTTTTG
# B2: methylated dsDNA (oNLF001/oTMN68) (dsDNA)
# DNA 1: B1 DNA 1
# DNA 2: B1 DNA 2
# modifications: m6A in strand 1 (oNLF001), exact position not visible in printed string; presumably in GACGAG
# B3: RNA-DNA hybrid (oTMN67/oJRR271) (DNA:RNA)
# DNA: B1 DNA 1
# RNA: CUAUAGUAUAAGCCACCAAAAAGCUCUCGUCCAAUACUAUUUCAUAUCCUGUUUUG
# modifications: strand 2 is RNA
# Target: T1, DnmA (WT)
# Assay: EMSA; EMSA: 5x buffer 500 mM Tris-HCl pH 8, 1.25 M NaCl, 10% glycerol (1x: 100 mM Tris, 250 mM NaCl, 2% glycerol), 5 nM probe, 30 min at 25 C; 6% native PAGE in 1x TBE on ice
# Details: protein: recombinant; tags: His-SUMO tag (pE-SUMO) removed by SUMO protease; label: 5' IRDye700 on strand 1; 5' IRDye800 on strand 2; blunt
row,Binder,apparent K (half saturation) [nM]
1,B1,36.8 ± 14.2
2,B2,156 ± 76
3,B3,321 ± 16.5
